In US20250237662A1:

What was measured:
[1] = target: internal research reagent human Fab (hFab); assay: SPR (Biacore T200), mAb captured by anti-rabbit mAb on CM5, antigen 80-0 nM, 1:1 fit
[2] = target: humanized development candidate monoclonal antibody IgG4 (hIgG4); assay: as above
[3] = target: humanized therapeutic monoclonal antibody IgG1 (hIgG1); assay: as above
[4] = target: humanized development candidate monoclonal antibody IgG4 (hIgG4); assay: Gyrolab, mAb as capture, hIgG4 40 ng/ml
[5] = target: cynomolgus monkey IgG (cynoIgG); assay: direct ELISA, cynoIgG coated (hIgG1/CynoIgG screen), B-cell culture medium
[6] = target: humanized development candidate monoclonal antibody IgG4 (hIgG4); assay: Gyrolab, mAb as capture, hIgG4 200 ng/ml
[7] = target: humanized development candidate monoclonal antibody IgG4 (hIgG4); assay: Gyrolab, mAb as capture, hIgG4 1000 ng/ml, against the blank
[8] = target: humanized development candidate monoclonal antibody IgG4 (hIgG4); assay: Gyrolab, mAb as capture, hIgG4 1000 ng/ml
[9] = target: humanized development candidate monoclonal antibody IgG4 (hIgG4); assay: Gyrolab, mAb as capture, hIgG4 0.32 ng/ml
[10] = target: humanized development candidate monoclonal antibody IgG4 (hIgG4); assay: Gyrolab, mAb as capture, hIgG4 1.6 ng/ml
[11] = target: humanized development candidate monoclonal antibody IgG4 (hIgG4); assay: Gyrolab, mAb as capture, hIgG4 8 ng/ml, against the blank
[12] = target: humanized therapeutic monoclonal antibody IgG1 (hIgG1); assay: ELISA, medium of transfected HEK293F; signal on hIgG1 over signal on cynoIgG
[13] = target: humanized development candidate monoclonal antibody IgG4 (hIgG4); assay: Gyrolab, mAb as capture, hIgG4 40 ng/ml, against the blank
[14] = target: humanized development candidate monoclonal antibody IgG4 (hIgG4); assay: Gyrolab, mAb as capture, hIgG4 200 ng/ml, against the blank
[15] = target: humanized development candidate monoclonal antibody IgG4 (hIgG4); assay: direct ELISA, hIgG4 coated, B-cell culture medium
[16] = target: humanized development candidate monoclonal antibody IgG4 (hIgG4); assay: Gyrolab, mAb as capture, hIgG4 5000 ng/ml
[17] = target: humanized development candidate monoclonal antibody IgG4 (hIgG4); assay: Gyrolab immunoassay quality control, biotinylated 16F5 as capture, hIgG4 in matrix with 4% cynomolgus monkey serum, Alexa Fluor 647 goat anti-human IgG detection
[18] = target: humanized development candidate monoclonal antibody IgG4 (hIgG4); assay: Gyrolab, mAb as capture, hIgG4 8 ng/ml
[19] = target: humanized development candidate monoclonal antibody IgG4 (hIgG4); assay: Gyrolab, mAb as capture, hIgG4 0.32 ng/ml, against the blank
[20] = target: humanized development candidate monoclonal antibody IgG4 (hIgG4); assay: Gyrolab, mAb as capture, hIgG4 5000 ng/ml, against the blank
[21] = target: humanized development candidate monoclonal antibody IgG4 (hIgG4); assay: Gyrolab, mAb as capture, hIgG4 1.6 ng/ml, against the blank
[22] = target: humanized therapeutic monoclonal antibody IgG1 (hIgG1); assay: direct ELISA, hIgG1 coated, B-cell culture medium
[23] = target: cynomolgus monkey IgG (cynoIgG); assay: direct ELISA, cynoIgG coated (hIgG4/CynoIgG screen), B-cell culture medium
[24] = target: humanized development candidate monoclonal antibody IgG4 (hIgG4); assay: ELISA, medium of transfected HEK293F; signal on hIgG4 over signal on cynoIgG

B1: rabbit anti-human IgG monoclonal antibody clone 16F5 (antibody, V domains shown)
VH: QQQLEESGGGLVKPGGTLTLTCKASGIDFSNYYYMCWVRQAPGKGLELIACIYTGSSGSTWYATWAKGRFTISKTSSTTVTLQMTSLTAADTATYFCARDRDVGSLYDSLDLWGQGTLVTVSP
VL: AYDMTQTPASVEAAVGGTVTINCQASQSINNWLSWYQQKPGQRPKLLIYQASTLASGVSSRFKGSGSGTHFTLTISDLECADAATYYCQQGWSIDDIDNAFGGGTEVVVKG
Kd [1]: 1.93 nM | koff [1]: 0.00584 s⁻¹ | kon [1]: 3.02e+06 M⁻¹ s⁻¹ | Kd [2]: 0.514 nM | koff [2]: 8.09e-05 s⁻¹ | kon [2]: 157000 M⁻¹ s⁻¹ | Kd [3]: 0.127 nM | koff [3]: 2.21e-05 s⁻¹ | kon [3]: 173000 M⁻¹ s⁻¹ | Av. Resp. [4]: 64.2 | OD450 [5]: 0.184 OD450 | Av. Resp. [6]: 197 | S/B [7]: 94.4 | Av. Resp. [8]: 369 | Av. Resp. [9]: 4.4 | Av. Resp. [10]: 7 | S/B [11]: 4.7 | ELISA signal ratio hIgG1/CynoIgG [12]: 5.9 | S/B [13]: 16.4 | S/B [14]: 50.5 | OD450 [15]: 1.37 OD450 | Av. Resp. [16]: 385 | Average Response (HQC, expected conc 750 ng/mL) [17]: 414 | Average Response (LQC, expected conc 40.0 ng/mL) [17]: 70.3 | Average Response (MQC, expected conc 0.600 ng/mL) [17]: 5.85 | Response (HQC, expected conc 750 ng/mL, CD struct C1) [17]: 400 | Response (HQC, expected conc 750 ng/mL, CD struct C2) [17]: 427 | Response (LQC, expected conc 40.0 ng/mL, CD struct C3) [17]: 68.6 | Response (LQC, expected conc 40.0 ng/mL, CD struct C4) [17]: 72 | Response (MQC, expected conc 0.600 ng/mL, CD struct C5) [17]: 5.88 | Response (MQC, expected conc 0.600 ng/mL, CD struct C6) [17]: 5.83 | S/B (HQC, expected conc 750 ng/mL, CD struct C1) [17]: 87.7 | S/B (HQC, expected conc 750 ng/mL, CD struct C2) [17]: 93.6 | S/B (LQC, expected conc 40.0 ng/mL, CD struct C3) [17]: 15 | S/B (LQC, expected conc 40.0 ng/mL, CD struct C4) [17]: 15.8 | S/B (MQC, expected conc 0.600 ng/mL, CD struct C5) [17]: 1.29 | S/B (MQC, expected conc 0.600 ng/mL, CD struct C6) [17]: 1.28 | Av. Resp. [18]: 18.5 | S/B [19]: 1.1 | S/B [20]: 98.6 | S/B [21]: 1.8 | OD450 [22]: 1.39 OD450 | OD450 [23]: 0.154 OD450 | ELISA signal ratio hIgG4/CynoIgG [24]: 6.33

B2: rabbit anti-human IgG monoclonal antibody clone 11F9 (antibody, V domains shown)
VH: QQQLEESGGGLVQPEGSLTLTCIASGFSFSSSHWICWVRQAPGKGLEWIACMSTSSGSTYDANWAKGRFTISKTSSTTVTLQMTSLTAADTATYFCARDVGGSTTYFDLWGPGTLVTVSS
VL: AYDMTQTPASVSEPVGGTVTIKCQASQSISNELSWYQQKPGQPPKLLIYRASTLASGVPSRFKGSGSGTQFTLTINGVECADAATYYCQQGYSISNVDNTFGGGTEVVVKG
Kd [1]: 1.12 nM | Kd [2]: 0.279 nM | Kd [3]: 0.619 nM | Av. Resp. [4]: 45.1 | OD450 [5]: 0.089 OD450 | Av. Resp. [6]: 148 | Av. Resp. [8]: 289 | Av. Resp. [9]: 3.1 | Av. Resp. [10]: 5 | OD450 [15]: 0.91 OD450 | Av. Resp. [16]: 330 | Av. Resp. [18]: 12.8 | OD450 [22]: 1.11 OD450 | OD450 [23]: 0.092 OD450

B3: rabbit anti-human IgG monoclonal antibody clone 9E6 (antibody, V domains shown)
VH: QSLEESGGDLVKPGASLTLTCKASGFDFSSSYYMCWVRQAPGRLEWIACIYGGGLSNTYYAGWAKGRFTISKTSSTTVTLQMTSLTVADTATYFCARDAGTSGDYLNLWGPGTLVTVSS
VL: AVVMTQTASPVSGAVGGTVTINCQASQSISSSYLSWYQQKPGQPPKLLIYGASTLASGVPSRFKGSGSGTQFTLTISGVQCDDAATYYCAYDAYRLSSPDNIFGGGTEVVVKG
Kd [1]: 0.518 nM | koff [1]: 0.00603 s⁻¹ | kon [1]: 1.16e+07 M⁻¹ s⁻¹ | Kd [2]: 0.196 nM | koff [2]: 2.68e-05 s⁻¹ | kon [2]: 137000 M⁻¹ s⁻¹ | Kd [3]: 0.426 nM | koff [3]: 6.1e-05 s⁻¹ | kon [3]: 143000 M⁻¹ s⁻¹ | Av. Resp. [4]: 28.4 | OD450 [5]: 0.14 OD450 | Av. Resp. [6]: 103 | S/B [7]: 88.2 | Av. Resp. [8]: 256 | Av. Resp. [9]: 3 | Av. Resp. [10]: 4.1 | S/B [11]: 3 | ELISA signal ratio hIgG1/CynoIgG [12]: 10.2 | S/B [13]: 9.8 | S/B [14]: 35.5 | OD450 [15]: 1.28 OD450 | Av. Resp. [16]: 327 | Av. Resp. [18]: 8.6 | S/B [19]: 1.1 | S/B [20]: 113 | S/B [21]: 1.4 | OD450 [22]: 1.28 OD450 | OD450 [23]: 0.146 OD450 | ELISA signal ratio hIgG4/CynoIgG [24]: 9.53

B4: rabbit anti-human IgG monoclonal antibody clone 19B1 (antibody, V domains shown)
VH: QEQLVESGGGLVQPEGSLTLTCTASGFSFSDSYYMCWVRQAPGKGLEWIACIYGGTITNTYYASWAKGRFTISKTSSTTVTLQMTSLTAADTATYFCARDLGAAGDAYNLWGPGTLVTVSS
VL: ASDMTQTPASVSEPVGGTVTIKCQASENIYSSLAWYQQKPGQPPKLLIYDASNLASGVPSRFSGSGSGTEFTLTISDLECADAATYYCQCTYRSSSSSYAFGGGTEVVVKG
Kd [1]: 0.54 nM | Kd [2]: 0.067 nM | Kd [3]: 0.239 nM | Av. Resp. [4]: 22.8 | OD450 [5]: 0.055 OD450 | Av. Resp. [6]: 82.9 | Av. Resp. [8]: 203 | Av. Resp. [9]: 1.8 | Av. Resp. [10]: 2.7 | OD450 [15]: 0.954 OD450 | Av. Resp. [16]: 246 | Av. Resp. [18]: 6.2 | OD450 [22]: 1.15 OD450 | OD450 [23]: 0.102 OD450
